# B1: Azoarcus group I ribozyme (parent)
# chain: GUGCCUUGCGCCGGGAAACCACGCAAGGGAUGGUGUCAAAUUCGGCGAAACCUAAGCGCCCGCCCGGGCGUAUGGCAACGCCGAGCCAAGCUUCGGCGCCUGCGCCGAUGAAGGUGUAGAGACUAGACGGCACCCACCUAAGGCAAACGCUAUGGUGAAGGCAUAGUCCAGGGAGUGGCGAAAGUCACACAAACCGG
# Variants of: B1
# Test: reverse-splicing fitness (ratio to wild type); higher = more active; in vitro selection; Mg2+ level not given
# How it was run: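 An in vitro group I ribozyme library with randomized positions was T7-transcribed and gel-purified. In triplicate, 10 pmol RNA in EPPS pH 7.5 was reacted with 50 pmoles of a 30-nt RNA substrate for 1 h at 37 °C across several added MgCl2 levels (1–48 mM), then stopped with EDTA. Products were reverse transcribed from a substrate-complementary primer, PCR-amplified and sequenced (HiSeq 4000). Fitness is a variant's read proportion after selection over that before, normalised to wild type.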
row,Variant,reverse-splicing fitness
1,GUGCCUUGCGCCGGGAAACCACGCAAGGGAUGGUGUCAAAUUCGGCGAAACCUAAGCGCCCGCCCGGGCGUAUGGCAACGCAGAGCCAAGCUUCGGCGCCUGCGCCGAUGCAGGUGUAGGGACUAGACGGCACCCACCUAAGGCUAACGAUAUGGUGAAGGCAUAGUCCAGGGAGUGGCGAAAGUCACACAAACCGG [C82A A111C A120G A145U C150A],0.00771
2,GUGCCUUGCGCCGGGAAACCACGCAAGGGAUGGUGUCAAAUUCGGCGAAACCUAAGCGCCCGCCCGGGCGUAUGGCAACGCAGAGCCAAGCUUCGGCGCCUGCGCCGAUGCAGGUGUAGGGACUAGACGGCACCCACCUAAGGCGAACGCUAUGGUGAAGGCAUAGUCCAGGGAGGGGCGAAAGUCACACAAACCGG [C82A A111C A120G A145G U176G],0.00581
3,GUGCCUUGCGCCGGGAAACCACGCAAGGGAUGGUGUCAAAUUCGGCGAAACCUAAGCGCCCGCCCGGGCGUAUGGCAACGCAGAGCCAAGCUUCGGCGCCUGCGCCGAUGCAGGUGUAGGGACUAGACGGCACCCACCUAAGGCGAACGCUAUGGUGAAGGCAUAGUCCAGGGAGAGGCGAAAGUCACACAAACCGG [C82A A111C A120G A145G U176A],0.0153
4,GUGCCUUGCGCCGGGAAACCACGCAAGGGAUGGUGUCAAAUUCGGCGAAACCUAAGCGCCCGCCCGGGCGUAUGGCAACGCAGAGCCAAGCUUCGGCGCCUGCGCCGAUGCAGGUGUAGGGACUAGACGGCACCCACCUAAGGCGAACGCUAUGGUGAAGGCAUAGUCCAGGGAGCGGCGAAAGUCACACAAACCGG [C82A A111C A120G A145G U176C],0.0226
5,GUGCCUUGCGCCGGGAAACCACGCAAGGGAUGGUGUCAAAUUCGGCGAAACCUAAGCGCCCGCCCGGGCGUAUGGCAACGCAGAGCCAAGCUUCGGCGCCUGCGCCGAUGCAGGUGUAGGGACUAGACGGCACCCACCUAAGGCGAACGCUAUGGUGAAGGCAUAGUCGAGGGAGUGGCGAAAGUCACACAAACCGG [C82A A111C A120G A145G C169G],0.00963
6,GUGCCUUGCGCCGGGAAACCACGCAAGGGAUGGUGUCAAAUUCGGCGAAACCUAAGCGCCCGCCCGGGCGUAUGGCAACGCAGAGCCAAGCUUCGGCGCCUGCGCCGAUGCAGGUGUAGGGACUAGACGGCACCCACCUAAGGCGAACGCUAUGGUGAAGGCAUAGUCAAGGGAGUGGCGAAAGUCACACAAACCGG [C82A A111C A120G A145G C169A],0.0107
7,GUGCCUUGCGCCGGGAAACCACGCAAGGGAUGGUGUCAAAUUCGGCGAAACCUAAGCGCCCGCCCGGGCGUAUGGCAACGCAGAGCCAAGCUUCGGCGCCUGCGCCGAUGCAGGUGUAGGGACUAGACGGCACCCACCUAAGGCGAACGCUAUGGUGAAGGCAUAGUCUAGGGAGUGGCGAAAGUCACACAAACCGG [C82A A111C A120G A145G C169U],0.00908
8,GUGCCUUGCGCCGGGAAACCACGCAAGGGAUGGUGUCAAAUUCGGCGAAACCUAAGCGCCCGCCCGGGCGUAUGGCAACGCAGAGCCAAGCUUCGGCGCCUGCGCCGAUGCAGGUGUAGGGACUAGACGGCACCCACCUAAGGCGAACGUUAUGGUGAAGGCAUAGUCCAGGGAGCGGCGAAAGUCACACAAACCGG [C82A A111C A120G A145G C150U U176C],0.0186
9,GUGCCUUGCGCCGGGAAACCACGCAAGGGAUGGUGUCAAAUUCGGCGAAACCUAAGCGCCCGCCCGGGCGUAUGGCAACGCAGAGCCAAGCUUCGGCGCCUGCGCCGAUGCAGGUGUAGGGACUAGACGGCACCCACCUAAGGCGAACGUUAUGGUGAAGGCAUAGUCCAGGGAGGGGCGAAAGUCACACAAACCGG [C82A A111C A120G A145G C150U U176G],0.00706
10,GUGCCUUGCGCCGGGAAACCACGCAAGGGAUGGUGUCAAAUUCGGCGAAACCUAAGCGCCCGCCCGGGCGUAUGGCAACGCAGAGCCAAGCUUCGGCGCCUGCGCCGAUGCAGGUGUAGGGACUAGACGGCACCCACCUAAGGCGAACGUUAUGGUGAAGGCAUAGUCCAGGGAGAGGCGAAAGUCACACAAACCGG [C82A A111C A120G A145G C150U U176A],0.00883
11,GUGCCUUGCGCCGGGAAACCACGCAAGGGAUGGUGUCAAAUUCGGCGAAACCUAAGCGCCCGCCCGGGCGUAUGGCAACGCAGAGCCAAGCUUCGGCGCCUGCGCCGAUGCAGGUGUAGGGACUAGACGGCACCCACCUAAGGCUAACGAUAUGGUGAAGGCAUAGUCGAGGGAGUGGCGAAAGUCACACAAACCGG [C82A A111C A120G A145U C150A C169G],0.00777
12,GUGCCUUGCGCCGGGAAACCACGCAAGGGAUGGUGUCAAAUUCGGCGAAACCUAAGCGCCCGCCCGGGCGUAUGGCAACGCAGAGCCAAGCUUCGGCGCCUGCGCCGAUGCAGGUGUAGGGACUAGACGGCACCCACCUAAGGCUAACGAUAUGGUGAAGGCAUAGUCAAGGGAGUGGCGAAAGUCACACAAACCGG [C82A A111C A120G A145U C150A C169A],0.00893
13,GUGCCUUGCGCCGGGAAACCACGCAAGGGAUGGUGUCAAAUUCGGCGAAACCUAAGCGCCCGCCCGGGCGUAUGGCAACGCAGAGCCAAGCUUCGGCGCCUGCGCCGAUGCAGGUGUAGGGACUAGACGGCACCCACCUAAGGCGAACGUUAUGGUGAAGGCAUAGUCUAGGGAGAGGCGAAAGUCACACAAACCGG [C82A A111C A120G A145G C150U C169U U176A],0.0155
14,GUGCCUUGCGCCGGGAAACCACGCAAGGGAUGGUGUCAAAUUCGGCGAAACCUAAGCGCCCGCCCGGGCGUAUGGCAACGCAGAGCCAAGCUUCGGCGCCUGCGCCGAUGCAGGUGUAGGGACUAGACGGCACCCACCUAAGGCGAACGUUAUGGUGAAGGCAUAGUCUAGGGAGGGGCGAAAGUCACACAAACCGG [C82A A111C A120G A145G C150U C169U U176G],0.00525
15,GUGCCUUGCGCCGGGAAACCACGCAAGGGAUGGUGUCAAAUUCGGCGAAACCUAAGCGCCCGCCCGGGCGUAUGGCAACGCAGAGCCAAGCUUCGGCGCCUGCGCCGAUGCAGGUGUAGGGACUAGACGGCACCCACCUAAGGCGAACGUUAUGGUGAAGGCAUAGUCUAGGGAGCGGCGAAAGUCACACAAACCGG [C82A A111C A120G A145G C150U C169U U176C],0.0131
